{
  "source": "paper PMC11417362",
  "about": "“Template-independent synthesis and 3′-end labelling of 2′-modified oligonucleotides with terminal deoxynucleotidyl transferases” (Nucleic Acids Research, 2024)",
  "proteins": {"B1": {"name": "bovine TdT (Bos taurus) (protein)", "chain": "MDPLCTASSGPRKKRPRQVGASMASPPHDIKFQNLVLFILEKKMGTTRRNFLMELARRKGFRVENELSDSVTHIVAENNSGSEVLEWLQVQNIRASSQLELLDVSWLIESMGAGKPVEITGKHQLVVRTDYSATPNPGFQKTPPLAVKKISQYACQRKTTLNNYNHIFTDAFEILAENSEFKENEVSYVTFMRAASVLKSLPFTIISMKDTEGIPCLGDKVKCIIEEIIEDGESSEVKAVLNDERYQSFKLFTSVFGVGLKTSEKWFRMGFRSLSKIMSDKTLKFTKMQKAGFLYYEDLVSCVTRAEAEAVGVLVKEAVWAFLPDAFVTMTGGFRRGKKIGHDVDFLITSPGSAEDEEQLLPKVINLWEKKGLLLYYDLVESTFEKFKLPSRQVDTLDHFQKCFLILKLHHQRVDSSKSNQQEGKTWKAIRVDLVMCPYENRAFALLGWTGSRQFERDIRRYATHERKMMLDNHALYDKTKRVFLKAESEEEIFAHLGLDYIEPWERNA", "notes": "recombinant, plasmid pET30a-bovine TdT, E. coli BL21(DE3)"}},
  "key": {"purified protein": {"substrate": "Nc1ncnc2c1ncn2[C@H]1C[C@H](O)[C@@H](COP(=O)(O)OP(=O)(O)OP(=O)(O)O)O1", "experiment": "purified protein", "settings": "100 nM ssDNA primer FAM-18G, 10 mM Mg(OAc)2, 1x TdT buffer (100 mM KCl, 30 mM Tris-acetate, 0.05% Triton X-100), pH 7.5, 37°C"}, "[1]": {"substrate": "Nc1ccn([C@@H]2O[C@H](COP(=O)(O)OP(=O)(O)OP(=O)(O)O)[C@@H](O)[C@@H]2F)c(=O)n1", "experiment": "steady-state primer extension, denaturing PAGE, Michaelis-Menten fit", "type": "biochemical, Bos taurus", "settings": "100 nM ssDNA primer FAM-18G, 10 mM Mg(OAc)2, 1x TdT buffer (100 mM KCl, 30 mM Tris-acetate, 0.05% Triton X-100), pH 7.5, 37°C", "source_text": "(§1) steady-state primer extension, denaturing PAGE, Michaelis-Menten fit on bovine TdT"}, "[2]": {"substrate": "Nc1ccn([C@H]2C[C@H](O)[C@@H](COP(=O)(O)OP(=O)(O)OP(=O)(O)O)O2)c(=O)n1", "experiment": "steady-state primer extension, denaturing PAGE, Michaelis-Menten fit", "type": "biochemical, Bos taurus", "settings": "100 nM ssDNA primer FAM-18G, 10 mM Mg(OAc)2, 1x TdT buffer (100 mM KCl, 30 mM Tris-acetate, 0.05% Triton X-100), pH 7.5, 37°C", "source_text": "as §1"}, "[3]": {"substrate": "Nc1nc2c(ncn2[C@@H]2O[C@H](COP(=O)(O)OP(=O)(O)OP(=O)(O)O)[C@@H](O)[C@@H]2F)c(=O)[nH]1", "experiment": "steady-state primer extension, denaturing PAGE, Michaelis-Menten fit", "type": "biochemical, Bos taurus", "settings": "100 nM ssDNA primer FAM-18G, 10 mM Mg(OAc)2, 1x TdT buffer (100 mM KCl, 30 mM Tris-acetate, 0.05% Triton X-100), pH 7.5, 37°C", "source_text": "as §1"}, "[4]": {"substrate": "Nc1nc2c(ncn2[C@@H]2O[C@H](COP(=O)(O)OP(=O)(O)OP(=O)(O)O)[C@@H](O)[C@H]2F)c(=O)[nH]1", "experiment": "steady-state primer extension, denaturing PAGE, Michaelis-Menten fit", "type": "biochemical, Bos taurus", "settings": "100 nM ssDNA primer FAM-18G, 10 mM Mg(OAc)2, 1x TdT buffer (100 mM KCl, 30 mM Tris-acetate, 0.05% Triton X-100), pH 7.5, 37°C", "source_text": "as §1"}, "[5]": {"substrate": "Nc1ncnc2c1ncn2[C@@H]1O[C@H](COP(=O)(O)OP(=O)(O)OP(=O)(O)O)[C@@H](O)[C@@H]1F", "experiment": "steady-state primer extension, denaturing PAGE, Michaelis-Menten fit", "type": "biochemical, Bos taurus", "settings": "100 nM ssDNA primer FAM-18G, 10 mM Mg(OAc)2, 1x TdT buffer (100 mM KCl, 30 mM Tris-acetate, 0.05% Triton X-100), pH 7.5, 37°C", "source_text": "as §1"}, "[6]": {"substrate": "Nc1ncnc2c1ncn2[C@@H]1O[C@H](COP(=O)(O)OP(=O)(O)OP(=O)(O)O)[C@@H](O)[C@H]1F", "experiment": "steady-state primer extension, denaturing PAGE, Michaelis-Menten fit", "type": "biochemical, Bos taurus", "settings": "100 nM ssDNA primer FAM-18G, 10 mM Mg(OAc)2, 1x TdT buffer (100 mM KCl, 30 mM Tris-acetate, 0.05% Triton X-100), pH 7.5, 37°C", "source_text": "as §1"}, "[7]": {"substrate": "O=c1ccn([C@@H]2O[C@H](COP(=O)(O)OP(=O)(O)OP(=O)(O)O)[C@@H](O)[C@@H]2F)c(=O)[nH]1", "experiment": "steady-state primer extension, denaturing PAGE, Michaelis-Menten fit", "type": "biochemical, Bos taurus", "settings": "100 nM ssDNA primer FAM-18G, 10 mM Mg(OAc)2, 1x TdT buffer (100 mM KCl, 30 mM Tris-acetate, 0.05% Triton X-100), pH 7.5, 37°C", "source_text": "as §1"}, "[8]": {"substrate": "CO[C@@H]1[C@H](O)[C@@H](COP(=O)(O)OP(=O)(O)OP(=O)(O)O)O[C@H]1n1ccc(N)nc1=O", "experiment": "purified protein, by the assay type", "parameters": "Steady-state single-nucleotide incorporation into primer FAM-18G, denaturing PAGE band quantification, Michaelis-Menten fit", "method": "(§2) The steady-state kinetic experiments were performed as described previously with minor modifications ([61]). A 2× reaction solution was prepared by mixing 200 nM primer FAM-18G, 0–128 μM 2′-modified NTP and 20 mM Mg(OAc)2 in 2× TdT buffer. A 5 μl aliquot of pre-warmed 2× reaction solution was mixed with 5 μl of bovine TdT, MTdT-evo or murine TdT of varying concentration, and incubated at 37°C for a certain time. The reaction was then quenched by the addition of 10 μl of 2× TBE-urea sample buffer and incubation at 95°C for 10 min. The products were analysed with 20% denaturing PAGE gels containing 8 M urea. All gel bands were quantified using Quantity One analysis software (Bio-Rad). Km and kcat values were calculated by fitting the data to the Michaelis–Menten equation with GraphPad Prism 8 software. To quantify the activities of different TdTs for the incorporation of 2′-modified NTPs, steady-state kinetic experiments were carried out."}, "[9]": {"substrate": "CO[C@@H]1[C@H](O)[C@@H](COP(=O)(O)OP(=O)(O)OP(=O)(O)O)O[C@H]1n1cnc2c(=O)[nH]c(N)nc21", "experiment": "purified protein, by the assay type", "parameters": "Steady-state single-nucleotide incorporation into primer FAM-18G, denaturing PAGE band quantification, Michaelis-Menten fit", "method": "as §2"}, "[10]": {"substrate": "Cc1cn([C@H]2C[C@H](O)[C@@H](COP(=O)(O)OP(=O)(O)OP(=O)(O)O)O2)c(=O)[nH]c1=O", "experiment": "purified protein, by the assay type", "parameters": "Steady-state single-nucleotide incorporation into primer FAM-18G, denaturing PAGE band quantification, Michaelis-Menten fit", "method": "as §2"}, "[11]": {"substrate": "O=c1ccn([C@@H]2O[C@H](COP(=O)(O)OP(=O)(O)OP(=O)(O)O)[C@@H](O)[C@H]2F)c(=O)[nH]1", "experiment": "purified protein, by the assay type", "parameters": "Steady-state single-nucleotide incorporation into primer FAM-18G, denaturing PAGE band quantification, Michaelis-Menten fit", "method": "as §2"}},
  "data": [
    {"protein": "B1", "values": [
      {"measurement": "Km", "setting": "purified protein", "value": "2.65 ± 0.76", "unit": "µM"},
      {"measurement": "kcat", "setting": "purified protein", "value": 0.00517, "unit": "s⁻¹"},
      {"measurement": "kcat/Km", "setting": "purified protein", "value": 1950, "unit": "M⁻¹ s⁻¹"},
      {"measurement": "Km", "setting": "[1]", "value": "2.83 ± 0.69", "unit": "µM"},
      {"measurement": "kcat", "setting": "[1]", "value": "0.0285 ± 0.00317", "unit": "s⁻¹"},
      {"measurement": "kcat/Km", "setting": "[1]", "value": 10100, "unit": "M⁻¹ s⁻¹"},
      {"measurement": "Km", "setting": "[2]", "value": "3.14 ± 0.46", "unit": "µM"},
      {"measurement": "kcat", "setting": "[2]", "value": "0.02 ± 0.001", "unit": "s⁻¹"},
      {"measurement": "kcat/Km", "setting": "[2]", "value": 6370, "unit": "M⁻¹ s⁻¹"},
      {"measurement": "Km", "setting": "[3]", "value": "2.91 ± 0.52", "unit": "µM"},
      {"measurement": "kcat", "setting": "[3]", "value": "0.0638 ± 0.00417", "unit": "s⁻¹"},
      {"measurement": "kcat/Km", "setting": "[3]", "value": 22000, "unit": "M⁻¹ s⁻¹"},
      {"measurement": "Km", "setting": "[4]", "value": "4.03 ± 0.52", "unit": "µM"},
      {"measurement": "kcat", "setting": "[4]", "value": "0.0182 ± 0.000483", "unit": "s⁻¹"},
      {"measurement": "kcat/Km", "setting": "[4]", "value": 4500, "unit": "M⁻¹ s⁻¹"},
      {"measurement": "Km", "setting": "[5]", "value": "2.23 ± 0.32", "unit": "µM"},
      {"measurement": "kcat", "setting": "[5]", "value": "0.0443 ± 0.00717", "unit": "s⁻¹"},
      {"measurement": "kcat/Km", "setting": "[5]", "value": 19800, "unit": "M⁻¹ s⁻¹"},
      {"measurement": "Km", "setting": "[6]", "value": "0.97 ± 0.27", "unit": "µM"},
      {"measurement": "kcat", "setting": "[6]", "value": "0.00933 ± 0.0011", "unit": "s⁻¹"},
      {"measurement": "kcat/Km", "setting": "[6]", "value": 9620, "unit": "M⁻¹ s⁻¹"},
      {"measurement": "Km", "setting": "[7]", "value": "2.63 ± 0.77", "unit": "µM"},
      {"measurement": "kcat", "setting": "[7]", "value": "0.0148 ± 0.00065", "unit": "s⁻¹"},
      {"measurement": "kcat/Km", "setting": "[7]", "value": 5630, "unit": "M⁻¹ s⁻¹"},
      {"measurement": "Km", "setting": "[8]", "value": "5.87 ± 0.76", "unit": "µM"},
      {"measurement": "kcat", "setting": "[8]", "value": "0.0004 ± 5.83e-05", "unit": "s⁻¹"},
      {"measurement": "kcat/Km", "setting": "[8]", "value": 68.2, "unit": "M⁻¹ s⁻¹"},
      {"measurement": "Km", "setting": "[9]", "value": "6.10 ± 1.50", "unit": "µM"},
      {"measurement": "kcat", "setting": "[9]", "value": "0.000683 ± 2.17e-05", "unit": "s⁻¹"},
      {"measurement": "kcat/Km", "setting": "[9]", "value": 112, "unit": "M⁻¹ s⁻¹"},
      {"measurement": "Km", "setting": "[10]", "value": "4.19 ± 0.91", "unit": "µM"},
      {"measurement": "kcat", "setting": "[10]", "value": "0.0075 ± 0.000833", "unit": "s⁻¹"},
      {"measurement": "kcat/Km", "setting": "[10]", "value": 1780, "unit": "M⁻¹ s⁻¹"},
      {"measurement": "Km", "setting": "[11]", "value": "5.33 ± 1.58", "unit": "µM"},
      {"measurement": "kcat", "setting": "[11]", "value": "0.00267 ± 0.000112", "unit": "s⁻¹"},
      {"measurement": "kcat/Km", "setting": "[11]", "value": 500, "unit": "M⁻¹ s⁻¹"}
    ]}
  ]
}
